Reference: US8435548 (BIO FD AND C, dated 2013)
Where no end group is shown, it is not given here. The star is where a group is joined. Galloyl = O=C(c1cc(O)c(O)c(O)c1)*

B1: Galloyl-tripeptide (tyrosyl-histidyl-tyrosine) (peptide)
peptide: Galloyl-Tyr-His-Tyr
B2: Galloyl-decapeptide (tyrosyl-glycyl-glycyl-phenylalanyl-leucyl-arginyl-lysyl-tyrosyl-prolyl-lysine) (peptide)
peptide: Galloyl-YGGFLRKYPK
B3: Digalloyl-tetrapeptide (lysyl-glutamyl-cysteinyl-glycine) (peptide)
peptide: KECG
modifications: also: two galloyl groups, attachment sites shown only in formula IV
B4: Galloyl-tripeptide (glutamyl-cysteinyl-glycine) (peptide)
peptide: Galloyl-Glu-Cys-Gly
B5: Digalloyl-tetrapeptide (lysyl-tyrosyl-histidyl-tyrosine) (peptide)
peptide: KYHY
modifications: also: two galloyl groups, attachment sites not given here
B6: Galloyl-tetrapeptide (lysyl-glutamyl-cysteinyl-glycine) (peptide)
peptide: Galloyl-KECG

The binders below were run against mushroom tyrosinase (1,500 units/ml, Sigma) (mushroom) (assay: cell-based or functional assay).

First: B1
Second: B2
The “Inhibition (%) of tyrosinase activity (absorbance at 490 nm, L-tyrosine substrate, compound at 100 µM)” value (from here on “Inhibition (%) of tyrosinase activity”) of the first is higher: 15% for the first, 5% for the second.

First: B3
Second: B4
The “Inhibition (%) of tyrosinase activity” value of the first is higher: 52% for the first, 34% for the second.

First: B5
Second: B6
The “Inhibition (%) of tyrosinase activity” value of the first is lower: 21% for the first, 40% for the second.
